From the DeepSol protein solubility set

Experiment: soluble on expression in E. coli; label from the status in PepcDB or PDB records

Row | Sequence | soluble on expression in E. coli
1 | MAHHHHHHMGISEGFEGIGVYAGSISAFMKPAHEKADATFVTNGDGVLPCEQPGSQAAIQAAQADYMASVAMTGKLPSPPHAGAEAHLHAHMQASHTSSLPRRAPPAALNVTPRNPPMSLAADPKLLSSPTSASAARPAVAAAAAAIGVTARPATSSLSSSPRPQSHIAKGASRVTADGSRIMRNKEATDYYRALPQNELSKEDMWRRINEASADRAEATGTAIGSAEVDYIKLEDELRDFDLFHYRIGEMAYPDQAMRRDYYALWNLAMSLNKARWSMLEVHSQRGMKTTGAGMKLIFWKESVGAVMEKRKMCTGEFTDSHPVLRPFAAAVERNPHMTKAFVRGFTDARLRVIQQPGNVQQLFDHFDKFYGYFFNSLLEVTHIKDEATEHLMTHVGRATGLTNHCVMFWKKYARLGFTMLPADLCADNHVNLGLLKNIPLASRDRAVRKVLFDVMCIVKDEMLHAQKCAKDVPPKAWPIVMECLYANYYLGFLQRRDFNVSAMFADHNIENAGFTWYRLKKRWEWERYQSIERLVDEAAPLPYINTCFTHRGSHYKMASGVGSGAPQAQRKRS | not soluble
2 | ASTQGISEDLYNRLVEMATISQAAYADLCNIPSTIIKGEKIYNAQTDINGWILRDDTSKEIITVFRGTGSDTNLQLDTNYTLTPFDTLPQCNDCEVHGGYYIGWISVQDQVESLVKQQASQYPDYALTVTGHSLGASMAALTAAQLSATYDNVRLYTFGEPRSGNQAFASYMNDAFQVSSPETTQYFRVTHSNDGIPNLPPAEQGYAHGGVEYWSVDPYSAQNTFVCTGDEVQCCEAQGGQGVNDAHTTYFGMTSGACTW | soluble
3 | MGSDKIHHHHHHVENWDEVRTAYQVARLGTVSGAADVLGVHHATVIRHIDAIEARLGVKLFQRHARGYTATEAGLDLLRVAQATDDQFSQLVGRLKGQGDEVSGELVVTSLSSMAPMLAPALAEFQQLHPDLVIRYLTGDRLFRLEYGEAHVALRAGAAPEQPDNVVQPFVAQRLALYASREYVERHGMLKGQDDMVNHRFIASDNENTRAPFERWLRSTIPAENIVFRCSDAVAGHQAIRAGAGIGFVSLWEAASSPDLVMMMDPHDEWSGKIWLVTHVDLHRTNKVQSFVRFLKEHAKSWPQ | not soluble
4 | MAHHHHHHMVMYDPAAPNNYRDVKVMWWKRAREDERKNDISRSLAAAAEAGSSPFDMPDMMRMAPRDELAYDILGGSGDTMSLHLSAEELHQRRVRQSAALGITTAMNLEREELEAAHKARVAAGMDRRGRIGQKLGKLMSVAATRENATKTNTTSDHVGDGINTSAGEMTPATTMATSTTTSLPGITAPLVFQRSELAAGGYVVREDVGALEKRKTHYGKPSSTILIRFVRDGPPVEVFDDTSNKNVGSGTLRNAFLENIQDLCGQCGVVRSLRYMVLDDGKRAALRARLENEREEVSAASADVETRLAREMIRVLVRFDTVANAFKALEMLQQRHGSNWDVCFFSTQLFDVGALGPAEGESLCCA | not soluble
5 | MKIAVTKFLGTNCDLDVCHAVKLAGGEPELVFFTQENLDSYKGAVIPGGFSYGDYLRAGAISARTPIIKGLKKMVEEGKPVLGICNGAQIGLEAGFSKGTLTNNLNAKFICKWVYIRVENNKTPFTQYYKKGEVLKIPIAHAEGRFYADDETLDYMYKNNMIVFKYCDETGEVTEEANPNGSIDNIAGVCNENQNCVLLMPHPERASEKILGSDDGLKMFKGMIDYAKRI | soluble
6 | EVVVTGYGDFKKATYTGSASVLNTDKLESLPVVSVAQMMEANIPGLSSVASSSQPGSKATVRVRGIASMNASTEPLYVLDGVPVASRDMSGLSANASAGGLGLIETLNPADIESITVLKDAASASLYGAKGSNGVILI | not soluble
7 | MGVRLAVRCFVVDGVLIDTGAKSMENEFTSFFQQQDIDQVVITHFHEDHTGCAAFLQRSMGLPIYMNEPMIEYCRQKADYPLYRKIFWGKRDPFAAKPIGATFSSRNATWDVIPTPGHAIDHVVFLNRETGQLFSGDLYCQEKTKVILREEDIPTIIASLQHVLTYDFGDVFCAHAGYLPLEHHHHHH | not soluble
8 | MTKPVSISKKPRKQHTPEFRNEALKLAERIGVAAAARELSLYESQLYAWRSKQQQQMSSSERESELAAENVRLKRQLAEQAEELSILQKAATYFAKRLK | not soluble
9 | MPPPNKRQKHARICGFMGTLARKKKEIEQQEALMKLHNLPLTYTEDQYKIVKEESTIYKNRFETAAAKNVELLKATDELKKELEFLKRQPGNQFKVDKKLKSEIDSAEEESKFYKNCFETTAAENVELLKVTDQLKKELEFLKAQQGNQFKVDMKIKSEMESATQSNLILLREKEMWKDRFNDVLSEKLALSARIRNVIGDRSESVEVPNDSNRDIWELREDLEMERSARRKAEEELKILKMTSSRGSMHISRDSTNQTPNEILLSMAIRLDSTSSN | not soluble
10 | MNAIIFCLLFTTVTATYEVFGKGIEHRNEHLIINQLDIIPVESTPTPNRASRVQKRLCGRRLILFMLATCGECDTDSSEDLSHICCIKQCDVQDIIRVCCPNSFRK | not soluble
11 | MSLKGKITLFFTALCFGLTGCIAPPKGLEKERFSINSYREISPQDLTCHCKTVRLGGKIVNTTVLANQTKIEVLSLPVSSISAKPFVELQSDGRFIVYFNGFVEPENLKERYITVGGQLAGTEKGKIEQADYTYPVVQADKYRIWTLSTTYDYPTDDWDEDDDWGFFRWRHRLWYVQPEIHYYLNEGGSHHHHHH | soluble
12 | MKVNKFITIYKDIAQQIEGGRWKAEEILPSEHELTAQYGTSRETVRKALHMLAQNGYIQKIRGKGSVVLNREKMQFPVSGLVSFKELAQTLGKETKTTVHKFGLEPPSELIQKQLRANLDDDIWEVIRSRKIDGEHVILDKDYFFRKHVPHLTKEICENSIYEYIEGELGLSISYAQKEIVAEPCTDEDRELLDLRGYDHMVVVRNYVFLEDTSLFQYTESRHRLDKFRFVDFARRGK | soluble
13 | MNARLENLMQWLKEKNVEAAFLTSTPNVFYMTNFHCEPHERLLGMFVFQEKEPILICPKMEEGQARNAGWAHEIIGFTDTDRPWDMIAKAIKDRGINANAVAIEKELLNVERYEELTKLFPNAAFTSAEEKVRELRLIKDEKELSILREAAKMADYAVEVGVNAIKEDRSELEVLAIIEHELKTKGIHKMSFDTMVLAGANSALPHGIPGANKMKRGDFVLFDLGVIIDGYCSDITRTVAFGEISEEQTRIYNTVLAGQLQAVEACKPGVTLGAIDNAARSVIADAGYGDFFPHRLGHGLGISVHEYPDVKAGNESPLKEGMVFTIEPGIYVPNVGGVRIEDDIYITKDGSEILTKFPKELQFVK | soluble
14 | MGSDKIHHHHHHMTTQAKQPSRFDRNPLASENERLILDIVRRHGPIARSVITTHTNLTQQSVHRLIEGLIERGLLRTGAPLKGARGQPSPTIELAVESVASLGISINTDSAIICLADFSCGVIAQKKLELLPLSREATLVSLSRTLDEMLEAHNLPRDRLLGLGFAMSGFSVADDRIFNAPEPLQDWSLMDLRPILEQTFQLPVWQENNATTGAIGESLQGVGRWCQTFAYLSFNYGFGGGLILNGQPFYGFHGNAAELSGIYDPTEAPRRPALQYLLRSLQDHGIEIDSVDTLYRTFDPGWPGVEAWLEATMPQVERLVAVLIAVIDPQAIVFGGQLPPALGAMMIERCPMPSQRVHRYGVGPKEARLVLSEVKGDAAVIGAALLPLKMRYFI | not soluble
15 | MCSHYQALKDQERMRKYFAAHPSAEVPADMWPRYMGAFIRRPLEWDSGDEAVPEREAATGRWGMIPPGTRPEKLAEASKKNTSNARSETAHQLWTFRNAWAKAQHCIIPADAIYEPDWRSGKAVPTRFTRADGAPLGIAGLWDRYRNAAGEWIDSYTMLTINADDDPLFRDYHQAGKEKRMVVILPDGAYGDWLTAPATDTRDFLLPYPADRLVAAAVKLEHHHHHH | soluble
16 | SLLLAKHPVISVNGNTAVLVPEETRKLAELVNAKVEINVFHHSPERVEKIKRYLEKHGIEVLAAGDAVLEGLESARRIVDSRGILIADVVLVPLEDGDRCEILKRHGKKVIAIDLNPLSRTARMADITIVDNIIRAFPKMVEMAEEMRKWERERLKEVVENYDNSKVLAEAVEGIIQYLQKVKGELLSP | soluble
17 | MAVPVRHLVAVTACVSGVAHTYMAAERLEKLCQQEKWSIKIETQGALGTENRLTEEDIRRADVVLLITDIELAGVERFTRSRYVQSGISAFLREPQRVMSAVRKLLSAPQHTHLILE | not soluble
